{
  "source": "patent US20240293509A1",
  "about": "“METHODS OF TREATING INFLAMMATORY BOWEL DISEASE” (UNIVERSITY OF PITTSBURGH - OF THE COMMONWEALTH SYSTEM OF …, priority 2021, published 2024)",
  "assay": "In vitro degradation of IL-2 in simulated gastric fluid",
  "assay_type": "in vitro ADME",
  "settings": "free IL-2, pH 2.0, 100 min, 37° C., ELISA",
  "experimental": "In silico and in vitro degradation of bioactive factors within the gastric environment. The in silico cytokine degradation was predicted using the Expasy PeptideCutter software package (E. Gasteiger et al., in The Proteomics Protocols Handbook, J. M. Walker, Ed. (Humana Press, Totowa, N J, 2005), pp. 571-607). In vitro degradation of IL-2 was measured in simulated gastric fluid (Ricca Chemical Company, Arlington, Texas) at pH 2.0. For the second set of the experimental conditions, pepsin (3.2 μg/L, Sigma) was also included. The samples were incubated for […] at 37° C. on a rocker and then neutralized before ELISA assay (R and D systems) for the soluble factors. For the MP containing factors, following treatment in the simulated gastric fluid the MPs were removed and washed multiple times with PBS supplemented with BSA and then incubated for 22 hours in PBS with 0.5% BSA. The released IL-2 was then quantitated with an ELISA excluding that which was released during the initial […] incubation in the simulated gastric fluid.",
  "data": [
    {"substance": "IL-2: recombinant IL-2 (murine, R&D Systems); in silico prediction on SEQ ID NO: 9", "values": [
      {"measurement": "degradation in simulated gastric fluid containing pepsin", "value": "complete degradation"}
    ]}
  ]
}
